Test results reported in the nanobody polyreactivity screen of Harvey et al. (2022).

Experiment: yeast display, Sf9 membrane polyspecificity reagent, FACS + sequencing; frameworks hold sequencing errors
Method in brief: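 In a synthetic yeast display library (Saccharomyces cerevisiae BJ5465), nanobody expression was induced with galactose for 36–48 hours. FACS gates were set low and high (top ~1%) using anti-HA fluorescence for expression and streptavidin fluorescence for binding of the Sf9 membrane reagent. Each polyreactivity label is drawn from the gate of origin.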

| Sequence | polyreactivity (PSR sort gate) |
| --- | --- |
| QVQLVESGGGLVQAGGSLRLSCAASGSTFSYNAMGWYRQAPGKERELVAAISGSGGTTYYADSVKGRFTISRDNAKNTVYLQMNSLKPEDTAVYYCAARPFRSWRYDYWGQGTQVTVSS | low polyreactivity |
| QVQLVESGGGLVQAGGSLRLSCAASGSTFSYNAMGWYRQAPGKERELVAAISRGDVSTYYADSVKGRFTISRDNAKNTVYLQMNSLKPEDSAVYYWAAYWYGSQYKWRYDYWGQGTQGTVSS | low polyreactivity |
| QVQLVESGGGLVQAGGSLRLSCAASGSTFSYNAMGWYRQAPGKERELVAAISWSGGSTYYADSVKGRFTISRDNAKNTVYLQMNSLKPEDTAVYYCASDSPYGYYEGDYWGQGTQVTVSS | low polyreactivity |
| QVQLVESGGGLVQAGGSLRLSCAASGSTFSYNAMGWYRQAPGKERELVAAITSRGGSTRYADSVKGRFTISRDNAKNTVYLQMNSLKPEDTAVYYCARPYSYYPYSTVNYWGQGTQVTVSS | high polyreactivity |
| QVQLVESGGGLVQAGGSLRLSCAASGSTFSYNAMGWYRQAPGKERELVAGITGRGGSTYYADSEKGRFTISRDNAKNTVYLQMYSLKPEDTAVYYCAADARSYGYPDDFWGQGTQVTVSS | high polyreactivity |
| QVQLVESGGGLVQAGGSLRLSCAASGSTFSYNAMGWYRQAPGKERELVATISNTDSTNYADSVKGRFTISRDNAKNTVYLQMNSLKPEVTAVYYCAVVSARIDYEYWGQGTQVTVSS | low polyreactivity |
| QVQLVESGGGLVQAGGSLRLSCAASGSTFSYNAMVWYRQAPRKERELVAAISRRGDNTYYADSVKGRFTISRDNAKNTVYLQMYSLKPEDTAVYYCAAVGYFVKQYAPRYGYWGHGTQVTVSS | low polyreactivity |
| QVQLVESGGGLVQAGGSLRLSCAASGSTFSYNDMGWYRQAPGKERELVAAISSGGSTKYADSVKGRFTISRDNAKNTVYLQMNSLKPEDTAVYYCNVDVKGRPTFWSPFGRFDYWGQGTQVTVSS | high polyreactivity |
| QVQLVESGGGLVQAGGSLRLSCAASGSTFSYNTMGWYRQAPGKERELVATISSSSGSTTYADSVKGRFTISRDIAKNTVYLQINSLKPEDTAVYYCNVDDPFYSGVVEFDYWGQGTQVTVSS | low polyreactivity |
| QVQLVESGGGLVQAGGSLRLSCAASGSTFSYYAIGWYRQAPGKERELVAAISRRGGSTYYADSVKGRFTISRDNAKNTVYLQMNRLKPEDTAVYYCAADYYFSSRIEYYYWGQGTQVTVSS | high polyreactivity |
| QVQLVESGGGLVQAGGSLRLSCAASGSTFSYYAMGWYRKAPGKERELVAAITIGGRTNYADSVKGRFTISRDNAKNTVYFQMNSLKPEDTAVYYCAASRVRSLRSYVWDLLLMDSWGQGTQVTVSS | high polyreactivity |
| QVQLVESGGGLVQAGGSLRLSCAASGSTFSYYAMGWYRQAPGKERELVAAITRGGSTYYADSVKGRFTISRDNAKNTVYLQMNSLKPEDTAVYYWAGQLLRYRYYYWGQGTQVNVSS | high polyreactivity |
| QVQLVESGGGLVQAGGSLRLSCAASGSTFSYYTMGWYRQSPGKERELVAVISTSGGNTYYADSVKGRFTISRDNAKNTVYLQMNSLKPEDTAVYYCAAAYPRVTYKNGYYWGQGTQVTVSS | high polyreactivity |
| QVQLVESGGGLVQAGGSLRLSCAASGSTFTANAMGWYRQAPGKERELVAAITNSDGSTYYADSVKGRFTISRDNAKNTVYLQMNSLKPEDTAVYYCAAPADSGITQVWQALSDYWGQGTQVTVSS | low polyreactivity |
| QVQLVESGGGLVQAGGSLRLSCAASGSTFTANAMGWYRQAPWKERELVAAITNSDGSTYYADSVKGRFTISRDNAKNTVYLQMNSLKPEDTAVYYCAKDYYACYWEMDYWGQGTQVTVSS | low polyreactivity |
| QVQLVESGGGLVQAGGSLRLSCAASGSTFTAYAMGWYRQAPGKERELVADISDSGGSTYYADSVKGRFTISRDNAKNTVYLQMNSLKPEDTAVYYCAVDVRAYVVSKFDSWGQGTQVTVSS | low polyreactivity |

| Sequence | polyreactivity (PSR sort gate) |
| --- | --- |
| QVQLVESGGGLVQAGGSLRLSCAASGSTFTAYAMGWYRQAPGKERELVADISKRSGGTYYADSVKGRFTISRDNAKNTVYLQMNSLKPEDTAVYYCGQGTQVTVSS | low polyreactivity |
| QVQLVESGGGLVQAGGSLRLSCAASGSTFTAYAMGWYRQAPGKERQLVAAISKRSGVTYYADSVKGRFTISRDNAKNTVYLQINSLKPEDTAVYYCGQGTQVTVSS | low polyreactivity |
| QVQLVESGGGLVQAGGSLRLSCAASGSTFTDNGMVWYRQAPGKARELVAGISYSGGSTYYADSVKGRFRISRDNAKNTVYLQMNSLKPEDTAVYYCAADRGGYYLSEYDYWGQVTQVTVSS | low polyreactivity |
| QVQLVESGGGLVQAGGSLRLSCAASGSTFTENTMGWYRQAPGKERELVAAITDSGGSTYYADSVKGRFTISRDNAKNTVYLQMNSLKPEDTAVYYCAADVQPDTRSTPEMDYWGQGTQVTVSS | low polyreactivity |
| QVQLVESGGGLVQAGGSLRLSCAASGSTFTFNAMAWYRQAPGKEREFVAAITASGGRTYYADSVKGRFTISRDNAKNTVYLQMNSLKPEDTAVYYCNASQWPSRFDYWGQGTQVTVSS | low polyreactivity |
| QVQLVESGGGLVQAGGSLRLSCAASGSTFTFNAMGWYRKAPGKERELVAAISGSDVTTYYADSVKGRFTISRDNAKNSVYLQMNSLKPEDTAVYYCAAESYVTTVTGPHTGDYWGQGTQVTVSS | low polyreactivity |
| QVQLVESGGGLVQAGGSLRLSCAASGSTFTFNAMGWYRQAPGKERELVAAIRWSTGGTYYADSVKGRFTISRDNAKNTVYLQMNSLKPEDTAVYYCAAQFVPYFYFSKYDYWGQGTQVTVSS | low polyreactivity |
| QVQLVESGGGLVQAGGSLRLSCAASGSTFTFYAMGWYRQAPGKERELVAAISGRGGSTYYADSVKGRFTISRDNAMNTVYLQMNSLKPEDTAVYYCAAGWSRVWRRDFGYWGQGTQVTVSS | low polyreactivity |
| QVQLVESGGGLVQAGGSLRLSCAASGSTFTFYAMGWYRQAPGKERELVASITQSTGSTHYADSVKGRFTISRDNAKNTVYLQMNSLKPEDTSVYYCNAQKIVYYWVTLFPYYYWGQGTQVTVSS | low polyreactivity |
| QVQLVESGGGLVQAGGSLRLSCAASGSTFTGNAMGWYSQAPGKERELVAAISRSGGRTYYADSVKGRFTISRDNAKNTVYLQMNSLKPEDTAVYYCNAVRNRGQRTAFDYWGQGTQVTVSS | high polyreactivity |
| QVQLVESGGGLVQAGGSLRLSCAASGSTFTGNSMGWYRQAPGKERELVAAISSSGASTYYADSVKGPFTISRDNAKNTVYLQMNSLKPEDTAVYYCAAELFYYPTPFREYDYWGQGTQVTVSS | low polyreactivity |
| QVQLVESGGGLVQAGGSLRLSCAASGSTFTGYAMGWYRPAPGKERELVAGITGSGGSTYYADSVKGRFTISRDNAKNTVYLQMNSLKPEDTAVYYCAAELYDYGDLYYSEYDYWGQGTQVTVSS | low polyreactivity |
| QVQLVESGGGLVQAGGSLRLSCAASGSTFTGYAMGWYRQAPGKERELVAAISISGGRTFYADSVKGRFTISRDNAKNTVYLQMNSLKPEDTAVYYCAAYLRGSKYSFDYWGQGTQVTVSS | high polyreactivity |
| QVQLVESGGGLVQAGGSLRLSCAASGSTFTHYAMGWYRQAPGKERELVAAITSSGGSTYYADSVKGRFTISRDNAKNTVYLQMNSLKPEDTAVYYCAARGSYRNRYRHDYWGQGTQVTVSS | high polyreactivity |
| QVQLVESGGGLVQAGGSLRLSCAASGSTFTINAMGWYRQAPGKERELVAAISRSGVRTFYADSVKGRFTNSRDNAKNTVYLQRNSLKPEDTAVYYCAKQTYRVTTDEGDYWGQGTQVTVSS | high polyreactivity |
| QVQLVESGGGLVQAGGSLRLSCAASGSTFTINVMGWYRQAPGKERELVAAINGGGRTNYADSVKGRFTSSRDNAKNTVYLQMNSLKPEDTAVYYCAADGLSNVRQMDYWGQGTQVTVSS | low polyreactivity |
